“Also recorded” adds a separate entry of the source. Read-outs that look alike come from different tables or passages of the source.
Tests used:
[1] = target: T1, pkLAP (microsomal LAP from porcine kidney) (Sus scrofa, UniProt P15145); assay: Effect of inhibitors and metallic cations on LAP activity (Leu-AMC); assay type: biochemical; settings: for effect of inhibitor on pkLAP activity: Leu-AMC 5 mM
T1 construct: purchased Sigma; host or cells: porcine kidney
T1 sequence (P15145 1-963): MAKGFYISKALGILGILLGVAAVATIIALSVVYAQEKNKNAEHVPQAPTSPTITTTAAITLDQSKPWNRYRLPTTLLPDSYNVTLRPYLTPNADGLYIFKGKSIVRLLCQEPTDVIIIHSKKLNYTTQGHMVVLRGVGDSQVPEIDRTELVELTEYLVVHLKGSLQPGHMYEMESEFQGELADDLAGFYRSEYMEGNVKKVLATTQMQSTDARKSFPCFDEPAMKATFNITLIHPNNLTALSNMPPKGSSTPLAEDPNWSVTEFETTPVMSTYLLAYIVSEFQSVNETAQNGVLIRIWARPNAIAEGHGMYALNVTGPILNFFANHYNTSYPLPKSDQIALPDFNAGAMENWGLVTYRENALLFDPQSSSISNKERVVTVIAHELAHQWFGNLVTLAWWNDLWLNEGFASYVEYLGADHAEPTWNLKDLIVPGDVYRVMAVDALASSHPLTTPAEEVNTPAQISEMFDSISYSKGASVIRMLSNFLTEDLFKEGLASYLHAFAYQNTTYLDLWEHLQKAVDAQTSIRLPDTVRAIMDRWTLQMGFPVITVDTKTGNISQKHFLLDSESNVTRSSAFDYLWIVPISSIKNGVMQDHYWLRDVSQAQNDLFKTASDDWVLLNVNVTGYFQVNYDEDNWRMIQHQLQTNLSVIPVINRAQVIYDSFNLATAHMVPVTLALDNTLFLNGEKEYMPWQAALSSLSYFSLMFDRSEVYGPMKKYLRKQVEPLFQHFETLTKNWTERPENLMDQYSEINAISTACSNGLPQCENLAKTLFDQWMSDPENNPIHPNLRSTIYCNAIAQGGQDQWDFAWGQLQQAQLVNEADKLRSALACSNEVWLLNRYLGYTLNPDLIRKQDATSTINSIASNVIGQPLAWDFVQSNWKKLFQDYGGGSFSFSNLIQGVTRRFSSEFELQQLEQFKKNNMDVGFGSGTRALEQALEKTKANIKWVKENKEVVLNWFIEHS

ruLAP2 = ruLAP2 (Trichophyton rubrum, UniProt Q5QHG6); assay type: biochemical; settings: for effect of inhibitor on ruLAP2 activity: Leu-AMC 5 mM
ruLAP1 = ruLAP1 (Trichophyton rubrum, UniProt Q5QHG5); assay type: biochemical
[2] = system: T. rubrum secreted proteolytic activity; assay: Inhibition of T. rubrum secreted proteolytic activity (resorufin-labeled casein); assay type: biochemical, Trichophyton rubrum; settings: T. rubrum culture medium, resorufin-labeled casein as substrate
Experimental: The proteolytic activity was measured using resorufin-labeled casein in phosphate buffer (20 mM; pH 7.4). The reaction mixture contained 0.02% substrate in a total volume of 0.5 ml. After incubation at 37° C., the undigested substrate was precipitated by trichloroacetic add (4% final concentration) and separated from the supernatant by centrifugation. The absorbance at 574 nm of the supernatant was measured after alkalinization by adding 500 μl Tris buffer (500 mM; pH 9.4). For practical purposes, one unit (U) of proteolytic activity was defined as that producing an absorbance of 0.001 per min.
T. rubrum was grown at 30° C. in a medium containing 0.2% soy protein as a sole carbon and nitrogen source. After 14 days of growth, a concomitant clarification of the culture medium was noted and a substantial proteolytic activity (400 U ml^−1) detected using resorufin-labeled casein as substrate. This proteolytic activity was 15% and 85% inhibited by PMSF and ortho-phenanthroline, respectively, attesting that serine and metalloproteases were secreted by T. rubrum. […] In addition, a high activity on substrates such as Leu-AMC and Leu-pNA was detected in the T. rubrum culture supernatant.

fuLAP2 = assay type: biochemical, Aspergillus fumigatus; settings: for effect of inhibitor on fuLAP2 activity: Leu-AMC 5 mM
fuLAP1 = fuLAP1 (Aspergillus fumigatus, UniProt Q5VJG6); assay: biochemical; assay type: biochemical; settings: for effect of inhibitor on fuLAP1 activity: Leu-AMC 5 mM
[3] = system: gliadin 33mer (fragment 57-89 of gliadin MM1); assay: Digestion of gliadin 33mer (RP-HPLC, ESI-MS); assay type: biochemical, wheat; settings: 37° C.
[4] = system: gliadin 14mer PQPQLPYPQPQLPY (fragment 82-95 of α/β gliadin AIV); assay type: biochemical, wheat
Gly-Ser-proNPY = assay: Digestion of Gly-Ser-proNPY; assay type: biochemical; settings: overnight 37° C., 1 mM CoCl2, E/S 1:20
From the text: The digested material was isolated by RP-HPLC and characterized by ESI-MS. […] The same result is obtained at an 1:[…] ratio. Digestion halts when the enzyme reaches a Xaa-Pro-motif, which in case of proNPY is Tyr-Pro.

Ala-proNPY = assay: Digestion of Ala-proNPY; assay type: biochemical; settings: conditions as for Gly-Ser-proNPY
Experimental: The digested material was isolated by RP-HPLC and characterized by ESI-MS. […] The same result is obtained at an 1:[…] ratio. Digestion halts when the enzyme reaches a Xaa-Pro-motif, which in case of proNPY is Tyr-Pro. Conditions of incubation were the same as for Gly-Ser-proNPY.

[5] = assay type: biochemical; settings: substrate Lys(Abz)Pro-PropNA 5 mM, 37° C., 60 min
[6] = assay type: biochemical
[7] = inhibitor 40 μM, Leu-MCA substrate, 15 min pre-incubation

Chain of ruLAP1 (Q5QHG5 21-373): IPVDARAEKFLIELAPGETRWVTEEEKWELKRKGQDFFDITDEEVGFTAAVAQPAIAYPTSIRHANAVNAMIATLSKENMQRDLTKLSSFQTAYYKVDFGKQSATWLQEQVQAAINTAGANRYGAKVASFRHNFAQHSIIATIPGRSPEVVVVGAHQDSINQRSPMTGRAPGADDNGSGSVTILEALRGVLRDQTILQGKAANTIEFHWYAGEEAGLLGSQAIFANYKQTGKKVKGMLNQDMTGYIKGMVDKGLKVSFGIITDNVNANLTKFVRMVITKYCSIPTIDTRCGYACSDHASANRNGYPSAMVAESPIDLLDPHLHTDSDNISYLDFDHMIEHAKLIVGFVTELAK
Chain of fuLAP1 (Q5VJG6 16-388): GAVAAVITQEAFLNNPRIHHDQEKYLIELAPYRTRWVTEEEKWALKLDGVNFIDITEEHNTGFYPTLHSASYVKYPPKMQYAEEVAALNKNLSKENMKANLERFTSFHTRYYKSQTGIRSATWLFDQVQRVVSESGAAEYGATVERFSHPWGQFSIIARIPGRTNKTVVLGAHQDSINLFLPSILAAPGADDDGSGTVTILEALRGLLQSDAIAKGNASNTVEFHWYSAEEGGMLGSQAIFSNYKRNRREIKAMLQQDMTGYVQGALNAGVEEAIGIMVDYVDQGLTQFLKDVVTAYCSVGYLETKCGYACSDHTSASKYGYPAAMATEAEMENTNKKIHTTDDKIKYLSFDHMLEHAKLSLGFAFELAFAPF

In the case of `O=S(=O)(F)Cc1ccccc1` [PMSF], the “effect of inhibitor on pkLAP activity” value [1] is reported as “no clear inhibitory effects”, the “pkLAP activity as percentage of control reaction without inhibitor” value [1, 7] is reported as 58% and the “effect of inhibitor on ruLAP2 activity” value (ruLAP2) is reported as “no clear inhibitory effects”. For the same molecule, the “ruLAP2 activity as percentage of control reaction without inhibitor” value (ruLAP2; [7]) was 79%, the “effect of inhibitor on ruLAP1 activity” value (ruLAP1) was “no clear inhibitory effects” and the “ruLAP1 activity as percentage of control reaction without inhibitor” value (ruLAP1; 40 µM) was 78%. For the same molecule, the “inhibition of proteolytic activity” value [2] was 15%, the “effect of inhibitor on fuLAP2 activity” value (fuLAP2) was “no clear inhibitory effects” and the “fuLAP2 activity as percentage of control reaction without inhibitor” value (fuLAP2; [7]) was 84%. For the same molecule, the “effect of inhibitor on fuLAP1 activity” value (fuLAP1) was “no clear inhibitory effects” and the “fuLAP1 activity as percentage of control reaction without inhibitor” value (fuLAP1; [7]) was 156%.

In the case of `c1cnc2c(c1)ccc1cccnc12` [ortho-phenantroline, ortho-phenanthroline], the “effect of inhibitor on pkLAP activity” value [1] is reported as “totally inhibited”, the “effect of inhibitor on ruLAP2 activity” value (ruLAP2) is reported as “totally inhibited” and the “effect of inhibitor on ruLAP1 activity” value (ruLAP1; Leu-AMC 5 mM) is reported as “totally inhibited”. For the same molecule, the “inhibition of proteolytic activity” value [2] was 85%, the “effect of inhibitor on fuLAP2 activity” value (fuLAP2) was “totally inhibited” and the “effect of inhibitor on fuLAP1 activity” value (fuLAP1) was “totally inhibited”.

B1: ruLAP2: T. rubrum leucine aminopeptidase, 495 amino acid residues (SEQ ID NO: 3) (protein, listed as Trichophyton rubrum)
chain: MKSQLLSLAVAVTTISQGVVGQEPFGWPFKPMVTQDDLQNKIKLKDIMAGVEKLQSFSDAHPEKNRVFGGNGHKDTVEWIYNEIKATGYYDVKKQEQVHLWSHAEAALNANGKDLKASAMSYSPPASKIMAELVVAKNNGCNATDYPANTQGKIVLVERGVCSFGEKSAQAGDAKAAGAIVYNNVPGSLAGTLGGLDKRHVPTAGLSQEDGKNLATLVASGKIDVTMNVISLFENRTTWNVIAETKGGDHNNVIMLGAHSDSVDAGPGINDNGSGSIGIMTVAKALTNFKLNNAVRFAWWTAEEFGLLGSTFYVNSLDDRELHKVKLYLNFDMIGSPNFANQIYDGDGSAYNMTGPAGSAEIEYLFEKFFDDQGIPHQPTAFTGRSDYSAFIKRNVPAGGLFTGAEVVKTPEQVKLFGGEAGVAYDKNYHRKGDTVANINKGAIFLNTRAIAYAIAEYARSLKGFPTRPKTGKRDVNPQYSKMPGGGCGHHTVFM
In the case of B1, the “digestion of gliadin 33mer, mixed with ruDPPIV” value ([3]; enzyme plus ruDPPIV (DPPIV)) is reported as “totally digested; also recorded: same HPLC pattern”, the “degradation of gliadin 33mer, enzyme alone” value ([3]; within 4 h) is reported as “less than 50%” and the “digestion of gliadin 14mer, supplemented with ruDPPIV” value [4] is reported as “complete breakdown”. For the same molecule, the “digestion of gliadin 14mer, enzyme alone” value ([4]; 4 h, 37° C.) was “not digested”, the “N-terminal cleavage of Gly-Ser-proNPY” value (Gly-Ser-proNPY) was “cleavage of the two N-terminal residues Gly-Ser” and the “removal of N-terminal alanine from Ala-proNPY” value (Ala-proNPY) was “almost totally removed”. The “hydrolytic activity toward Lys(Abz)Pro-PropNA in comparison to Leu-MCA used as a standard” value [5] was 0.0%, the “hydrolytic activity toward Asp-AMC” value ([6]; compared to Leu-AMC) was “efficiently cleaved; also recorded: efficiently hydrolyze” and the “hydrolytic activity toward Glu-AMC” value ([6]; compared to Leu-AMC) was “efficiently cleaved; also recorded: efficiently hydrolyze”. For the same molecule, the “hydrolytic activity toward Pro-AMC” value ([6]; compared to Leu-AMC) was “more efficiently cleaved”, the “hydrolytic activity toward Ser-AMC” value ([6]; compared to Leu-AMC) was “more efficiently cleaved” and the “hydrolytic activity toward Ala-AMC in comparison to Leu-MCA used as a standard” value ([6]; substrate Ala-AMC 5 mM, 37° C., 60 min) was 33.3%. For the same molecule, the “hydrolytic activity toward Arg-AMC in comparison to Leu-MCA used as a standard” value ([6]; substrate Arg-AMC 5 mM, 37° C., 60 min) was 1.9%, the “hydrolytic activity toward Asn-AMC in comparison to Leu-MCA used as a standard” value ([6]; substrate Asn-AMC 5 mM, 37° C., 60 min) was 114.6% and the “hydrolytic activity toward Asp-AMC in comparison to Leu-MCA used as a standard” value ([6]; substrate Asp-AMC 5 mM, 37° C., 60 min) was 3.8%. The “hydrolytic activity toward Cys-AMC in comparison to Leu-MCA used as a standard” value ([6]; substrate Cys-AMC 5 mM, 37° C., 60 min) was 14.9%, the “hydrolytic activity toward Gln-AMC in comparison to Leu-MCA used as a standard” value ([6]; substrate Gln-AMC 5 mM, 37° C., 60 min) was 49.9% and the “hydrolytic activity toward Glu-AMC in comparison to Leu-MCA used as a standard” value ([6]; substrate Glu-AMC 5 mM, 37° C., 60 min) was 3.7%. The “hydrolytic activity toward Gly-AMC in comparison to Leu-MCA used as a standard” value ([6]; substrate Gly-AMC 5 mM, 37° C., 60 min) was 3.3%, the “hydrolytic activity toward Gly-Pro-AMC in comparison to Leu-MCA used as a standard” value ([6]; substrate Gly-Pro-AMC 5 mM, 37° C., 60 min) was 7.2% and the “hydrolytic activity toward His-AMC in comparison to Leu-MCA used as a standard” value ([6]; substrate His-AMC 5 mM, 37° C., 60 min) was 0.6%. The “hydrolytic activity toward Hyp-AMC in comparison to Leu-MCA used as a standard” value ([6]; substrate Hyp-AMC 5 mM, 37° C., 60 min) was 14.2%, the “hydrolytic activity toward Ile-AMC in comparison to Leu-MCA used as a standard” value ([6]; substrate Ile-AMC 5 mM, 37° C., 60 min) was 6.4% and the “hydrolysis of Leu-AMC” value ([6]; substrate Leu-AMC) was “efficiently hydrolyzed; also recorded: common preference”. The “hydrolytic activity toward Leu-AMC in comparison to Leu-MCA used as a standard” value ([6]; substrate Leu-AMC 5 mM, 37° C., 60 min) was 100.0%, the “hydrolytic activity toward Lys-AMC in comparison to Leu-MCA used as a standard” value ([6]; substrate Lys-AMC 5 mM, 37° C., 60 min) was 4.6% and the “hydrolytic activity toward Met-AMC in comparison to Leu-MCA used as a standard” value ([6]; substrate Met-AMC 5 mM, 37° C., 60 min) was 119.7%. For the same molecule, the “hydrolytic activity toward Phe-AMC in comparison to Leu-MCA used as a standard” value ([6]; substrate Phe-AMC 5 mM, 37° C., 60 min) was 17.1%, the “hydrolytic activity toward Pro-AMC in comparison to Leu-MCA used as a standard” value ([6]; substrate Pro-AMC 5 mM, 37° C., 60 min) was 21.4% and the “hydrolytic activity toward Pyr-AMC in comparison to Leu-MCA used as a standard” value ([6]; substrate Pyr-AMC 5 mM, 37° C., 60 min) was 0.0%. For the same molecule, the “hydrolytic activity toward Ser-AMC in comparison to Leu-MCA used as a standard” value ([6]; substrate Ser-AMC 5 mM, 37° C., 60 min) was 26.1%, the “hydrolytic activity toward Thr-AMC in comparison to Leu-MCA used as a standard” value ([6]; substrate Thr-AMC 5 mM, 37° C., 60 min) was 0.9% and the “hydrolytic activity toward Val-AMC in comparison to Leu-MCA used as a standard” value ([6]; substrate Val-AMC 5 mM, 37° C., 60 min) was 4.8%. For the same molecule, the “digestion of denatured casein” value (denatured casein) was “sequentially digest”.
